Laboratory results as given in PMC6764859 (Nature chemical biology, 2019).

Assays:
[1] = target: PTCH1_(ECD2), biotinylated (BLI) (human, UniProt Q13635, biotin on the BirA-recognition sequence); test: BLI
[2] = target: PTCH1_(ECD1), biotinylated (BLI) (human, UniProt Q13635, biotin on the BirA-recognition sequence); test: BLI
PTCH1_(ECD1), biotinylated (BLI), sequence (Q13635 139-428): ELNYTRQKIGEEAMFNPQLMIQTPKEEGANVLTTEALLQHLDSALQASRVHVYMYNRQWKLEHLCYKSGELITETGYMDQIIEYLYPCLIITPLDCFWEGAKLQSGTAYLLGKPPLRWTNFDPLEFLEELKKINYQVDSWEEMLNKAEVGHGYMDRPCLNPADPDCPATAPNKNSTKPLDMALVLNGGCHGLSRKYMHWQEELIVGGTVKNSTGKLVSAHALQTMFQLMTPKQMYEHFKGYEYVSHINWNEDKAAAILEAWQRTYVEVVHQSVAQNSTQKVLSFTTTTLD

PTCH1_(ECD2), biotinylated (BLI), sequence (Q13635 772-1023): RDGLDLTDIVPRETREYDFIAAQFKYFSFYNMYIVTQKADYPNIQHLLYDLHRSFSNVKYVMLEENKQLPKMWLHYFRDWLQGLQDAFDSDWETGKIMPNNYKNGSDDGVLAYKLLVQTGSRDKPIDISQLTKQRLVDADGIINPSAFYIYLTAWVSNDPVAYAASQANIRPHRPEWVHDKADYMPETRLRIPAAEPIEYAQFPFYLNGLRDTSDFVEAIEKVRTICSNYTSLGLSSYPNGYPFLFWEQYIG

B1: NB75 (VHH)
VHH: QVQLQESGGGLVQAGDSLTLSCAASGRTFSSYTMGWFRQAPGKERDFIAGITSTGSSTYYADSVKGRFTISRDNAKNTVYLQMNSLKPEDTADYYCARKVAGGSYYQKDKYDYWGQGTQVTVSS
- binding result [1]: binds

B2: NB64 (VHH)
VHH: QVQLQESGGGLVQPGGSLRLSCAASGSGNSINVMGWYRQAPGKPRELVAEITSSGTTNYADSVKGRFSISRDNAKNTVPLQMNSLKPEDTAIYYCSAVLVRFGGLRRSYWGQGTQVTVSS
- binding result [2]: binds
